Test results from US20110245326, “Post-Transcriptional Regulation Of RNA-Related Processes Using Encoded Protein-Binding RNA Aptamers” (published 2011).
Substitutions are numbered along the chain they refer to.

Assays:
[1] = molecular target: T1, Tetracycline repressor protein (TetR) (UniProt P04483 P04483:1-207); test: flow; 50 mM Tris pH 8.0, 50 mM KCl, 5 mM MgCl2, room temperature; no significant translation repression; conditions: tags: N-terminal T7 tag, C-terminal His6 (pET24a); chain copies: 2 (inferred, TetR dimer); label: 3' fluorescein
T1 sequence (P04483 whole entry, one chain of several): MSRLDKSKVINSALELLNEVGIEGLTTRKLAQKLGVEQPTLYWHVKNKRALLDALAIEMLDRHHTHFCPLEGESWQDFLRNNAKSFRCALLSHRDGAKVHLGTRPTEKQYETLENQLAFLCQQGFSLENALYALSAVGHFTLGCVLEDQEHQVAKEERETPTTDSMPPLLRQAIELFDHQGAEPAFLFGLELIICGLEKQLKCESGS
Protocol: (§1) Quantitative affinity measurements of aptamer interactions with TetR were performed as described previously. Brodsky et al, “A microbead-based system for identifying and characterizing RNA-protein interactions by flow cytometry” Mol Cell Proteomics 1:922-929 (2002); and Warren et al, “A novel binding assay to assess specificity of monoclonal antibodies” J Immunol Methods 305:33-38 (2005). Dynabeads TALON® (Invitrogen) (1 μL) were washed with Affinity Binding Buffer (ABB) (BB+10 μg/mL BSA) and centrifuged at 250×g for 2 mins. Beads were resuspended in ABB and incubated with 60 μg of purified His₆-tagged TetR for 1 h at room temperature. TetR-coated beads were washed twice and resuspended in ABB. Beads were counted by microscopy, and 70,000 beads were placed per well in a 96-well microplate. Fluorescein-labeled RNA in ABB was added to the beads. […] The median fluorescence intensities of the samples were plotted against RNA or DNA concentration using GraphPad Prism® 5 (GraphPad Software, Inc.).
(§2) This example presents a data summary of the various constructs tested for TetR-aptamer binding, cell-free translation, and yeast in vivo expression experiments. Translational repression is reported as the luminescence intensity of the uninduced condition relative to the induced condition. The binding of RNA aptamers to TetR was measured by flow cytometry. […]

[2] = molecular target: T1, Tetracycline repressor protein (TetR); test: flow; 50 mM Tris pH 8.0, 50 mM KCl, 5 mM MgCl2, room temperature; repression NS cell-free, 9% yeast; conditions: tags: N-terminal T7 tag, C-terminal His6 (pET24a); chain copies: 2 (inferred, TetR dimer); label: 3' fluorescein
Protocol: as §1, §2

[3] = molecular target: T1, Tetracycline repressor protein (TetR); test: flow; 50 mM Tris pH 8.0, 50 mM KCl, 5 mM MgCl2, room temperature; repression 91% cell-free, 81% yeast; conditions: tags: N-terminal T7 tag, C-terminal His6 (pET24a); chain copies: 2 (inferred, TetR dimer); label: 3' fluorescein; stem-loop
Protocol: as §1, §2

[4] = molecular target: T1, Tetracycline repressor protein (TetR); test: flow; binding listed as NS; no translation repression; conditions: tags: N-terminal T7 tag, C-terminal His6 (pET24a); chain copies: 2 (inferred, TetR dimer); label: 3' fluorescein
Protocol: as §1, §2

[5] = molecular target: T1, Tetracycline repressor protein (TetR); test: flow; IRE does not bind TetR with high affinity; no translation repression; conditions: tags: N-terminal T7 tag, C-terminal His6 (pET24a); chain copies: 2 (inferred, TetR dimer); hairpin
Protocol: Quantitative affinity measurements of aptamer interactions with TetR were performed as described previously. Brodsky et al, “A microbead-based system for identifying and characterizing RNA-protein interactions by flow cytometry” Mol Cell Proteomics 1:922-929 (2002); and Warren et al, “A novel binding assay to assess specificity of monoclonal antibodies” J Immunol Methods 305:33-38 (2005). Dynabeads TALON® (Invitrogen) (1 μL) were washed with Affinity Binding Buffer (ABB) (BB+10 μg/mL BSA) and centrifuged at 250×g for 2 mins. Beads were resuspended in ABB and incubated with 60 μg of purified His₆-tagged TetR for 1 h at room temperature. TetR-coated beads were washed twice and resuspended in ABB. Beads were counted by microscopy, and 70,000 beads were placed per well in a 96-well microplate. Fluorescein-labeled RNA in ABB was added to the beads. Nonspecific RNA interactions were reduced by adding 10 μg/mL yeast tRNA. The binding reaction proceeded with moderate shaking for 4 h at room temperature. […] The median fluorescence intensities of the samples were plotted against RNA or DNA concentration using GraphPad Prism® 5 (GraphPad Software, Inc.).
Several aptamers, but not the iron-responsive element, bind TetR with high affinity. […] Reporter expression was measured in a rabbit reticulocyte cell-free system or in S. cerevisiae in the presence and absence of the inducer aTc.

[6] = molecular target: T1, Tetracycline repressor protein (TetR); test: flow; 50 mM Tris pH 8.0, 50 mM KCl, 5 mM MgCl2, room temperature; repression 56% cell-free, 75% yeast; conditions: tags: N-terminal T7 tag, C-terminal His6 (pET24a); chain copies: 2 (inferred, TetR dimer); label: 3' fluorescein
Protocol: as §1, §2

B1: 5-14.7b (ssRNA)
RNA: GGGAGCUGAGAAUAAACGCUCAACAGGAAACAGCAAGACAAACGAUGGGGAGCGUAAGACUGCGAGUGUCGGAUUCGACAUCAGGCCCGGAUCCGGC
Q: For B1, which Kd [1] is on record?
A: Its Kd is 1.44 nM.

B2: 5-18.13 (ssRNA)
RNA: GGGAGCUGAGAAUAAACGCUCAAUAGGGAGAGAACUGUGUCAGAAUGUAGUGAACCAGACACGGAGUGGAGUAUUCGACAUCAGGCCCGGAUCCGGC
Q: How did the Kd [2] turn out when B2 was run?
A: The Kd was 0.45 nM.

B3: 5-29.13a (ssRNA)
RNA: GGGAGCUCAGAAUAAACGCUCAACUUGCUGCAGAGGGUCGAGAAUAUGUGUGACACUGCGUCGACGGGUUAAGUUCGACAUCAGGCCCGGAUCCGGC
Q: With B3 as the binder, how does the Kd [1] read?
A: Its Kd is 2.77 nM.

B4: 5-1.2 (ssRNA)
RNA: GGAUCCAGGCAGAGAAAGGUCGAUACGGACGGAAUGUGAUGGCCUGGAUCC
Q: How did the Kd [3] turn out when B4 was run?
A: The Kd was 1.6 nM.

B5: 5-1.2m2 (ssRNA)
RNA: B4 RNA with A13U, A15U
Q: Does B5 bind [4]?
A: Result: no binding

Q: Does CUUAAGCUUCAACAGUGCUUGAACUUAAG (ssRNA) [Iron Responsive Element (IRE)] bind [5]?
A: Result: no binding

B6: 5-1.13 (ssRNA)
RNA: GGGAGCUCAGAAUAAACGCUCAACUCCUGUAGUGAAGGCAGAGAAAGGUCGAUACGGACGGAAUGUGAUGGCCUUCGACAUCAGGCCCGGAUCCGGC
Q: Which Kd [6] does the source give for B6 here?
A: Its Kd is 0.37 nM.
